Assay results from patent US20260097129A1, “ANTIBODY-DRUG CONJUGATE COMPRISING DRUG AND ANTIBODY SPECIFICALLY BINDING TO GRP94 OR ANTIGEN-BINDING FRAGMENT THEREOF” (KOOKMIN UNIVERSITY INDUSTRY ACADEMY COOPERATION FOUNDATION, priority 2022, published 2026).

Columns and labels:
HCT116 cells = assay: Antibody internalization, FabFluor-pH Red labeling, Incucyte live cell imaging; assay type: cell-based, human
Description: Antibody internalization in HCT116 cells was measured using the FabFluor-pH Red Antibody Labeling Reagent (Sartorius, Gottingen, Germany) according to the manufacturer's instructions. […] HCT116 cells were seeded at a density of 10,000 cells/well in a 96-well culture plate and allowed to adhere overnight. The control IgG, K101.1, or trastuzumab (MedChemExpress, Princeton, NJ, USA) were individually labeled with the human FabFluor-pH Red antibody labeling reagent at a 1:3 molar ratio in PBS and incubated for 15 minutes. The labeled antibodies were added to the cell culture medium at a final concentration of 2 μg/ml. The plate was transferred to the Incucyte SX1 live cell analysis system (Sartorius) and images were captured with a 10× objective lens for 12 hours. The fluorescence intensity was individually measured for each image.
The internalization of antibodies in HCT116 cells was measured using the FabFluor-pH Red antibody labeling reagent (Sartorius, Göttingen, Germany) according to the manufacturer's instructions. […] However, after internalization of the reagent-labeled antibody, the fluorescence intensity increases under the acidic conditions inside endosomes and lysosomes. HCT116 cells were seeded at a density of 10,000 cells per well in a 96-well culture plate and allowed to attach overnight. […] Fluorescence intensity was then measured.

HCT116 = assay: Cell proliferation assay, real-time live cell imaging (Incucyte); assay type: cell-based, human; conditions: 133 nM K101.1, 33 nM and 133 nM K101.1-Sec-DM1, 62 hours, FIG. 9
Description: (§1) To investigate the effect of K101.1-Sec-DM1 on CRC cell growth in vitro, 1×10^4 HT29, LoVo, or 5×10^3 HCT116 CRC cells were seeded in the wells of a 96-well plate and incubated at 37° C. for 16 hours. The cells were then treated with either 133 nM of K101.1 or 33 nM and 133 nM of K101.1-Sec-DM1, with or without the presence of the drug. Cell growth was measured for 62 hours using the Incucyte SX1 live cell analysis instrument (Sartorius).

HT29 = assay: as above; assay type: cell-based, human; conditions: 133 nM K101.1, 33 nM and 133 nM K101.1-Sec-DM1, 62 hours, FIG. 9
Description: as §1

LoVo = assay: as above; assay type: cell-based, human; conditions: 133 nM K101.1, 33 nM and 133 nM K101.1-Sec-DM1, 62 hours, FIG. 9
Description: as §1

rhGRP94 = rhGRP94 (Homo sapiens, UniProt P14625); assay: ELISA binding to immobilized rhGRP94; conditions: immobilized rhGRP94, FIG. 8
Description: (§2) A 96-well microplate was coated with 0.1 μg of rhGRP94 and incubated at 4° C. for 16 hours. After blocking the plate with 3% (w/v) BSA in PBS at 37° C. for 2 hours, the plate was incubated with 20 µg/mL of K101.1-Sec (SelT) at 37° C. for 2 hours. After washing the plate three times with PBS-T, it was incubated with HRP-conjugated anti-human Fc secondary antibody (1:5,000; Invitrogen) or HRP-conjugated anti-HA antibody (1:3,000; Bethyl Laboratories, Montgomery, TX, USA) at 37° C. for 1 hour. The color reaction was initiated with 100 μL of TMB substrate solution and terminated with 2N H2SO4 solution. Optical density was measured at 450 nm using a microplate reader.
as §2, with “blocking” for “blocking the plate”, “20 μg/mL” for “20 µg/mL”, “washing” for “washing the plate”, “PBS-T, the plate” for “PBS-T, it”, “Invitrogen)” for “Invitrogen) or HRP-conjugated anti-HA antibody (1:3,000; Bethyl Laboratories, Montgomery, TX, USA)”

rmGRP94 = rmGRP94 (Mus musculus, UniProt P08113); assay: ELISA binding to immobilized rmGRP94; conditions: immobilized rmGRP94, FIG. 8
Chain of rmGRP94 (P08113 22-802): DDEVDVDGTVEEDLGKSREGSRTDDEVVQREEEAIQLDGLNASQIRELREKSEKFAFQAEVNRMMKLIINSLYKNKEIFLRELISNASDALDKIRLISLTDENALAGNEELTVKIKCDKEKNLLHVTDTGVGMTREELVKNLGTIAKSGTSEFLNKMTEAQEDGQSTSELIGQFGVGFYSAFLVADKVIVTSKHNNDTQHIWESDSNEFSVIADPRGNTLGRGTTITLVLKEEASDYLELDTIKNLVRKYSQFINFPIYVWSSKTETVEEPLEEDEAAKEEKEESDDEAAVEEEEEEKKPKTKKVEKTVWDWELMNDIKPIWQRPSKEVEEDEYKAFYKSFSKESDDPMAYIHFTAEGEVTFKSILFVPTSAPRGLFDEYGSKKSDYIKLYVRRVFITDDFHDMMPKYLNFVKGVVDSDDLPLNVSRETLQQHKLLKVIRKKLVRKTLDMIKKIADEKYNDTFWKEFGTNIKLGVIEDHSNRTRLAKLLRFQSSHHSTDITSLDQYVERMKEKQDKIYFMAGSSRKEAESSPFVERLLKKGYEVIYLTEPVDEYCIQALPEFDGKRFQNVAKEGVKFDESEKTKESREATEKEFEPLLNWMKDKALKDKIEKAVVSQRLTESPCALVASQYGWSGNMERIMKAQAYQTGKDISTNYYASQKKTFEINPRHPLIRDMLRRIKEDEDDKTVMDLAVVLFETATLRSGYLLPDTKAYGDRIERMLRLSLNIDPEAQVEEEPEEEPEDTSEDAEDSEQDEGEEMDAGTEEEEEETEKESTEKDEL

Chain of rhGRP94 (P14625 22-803): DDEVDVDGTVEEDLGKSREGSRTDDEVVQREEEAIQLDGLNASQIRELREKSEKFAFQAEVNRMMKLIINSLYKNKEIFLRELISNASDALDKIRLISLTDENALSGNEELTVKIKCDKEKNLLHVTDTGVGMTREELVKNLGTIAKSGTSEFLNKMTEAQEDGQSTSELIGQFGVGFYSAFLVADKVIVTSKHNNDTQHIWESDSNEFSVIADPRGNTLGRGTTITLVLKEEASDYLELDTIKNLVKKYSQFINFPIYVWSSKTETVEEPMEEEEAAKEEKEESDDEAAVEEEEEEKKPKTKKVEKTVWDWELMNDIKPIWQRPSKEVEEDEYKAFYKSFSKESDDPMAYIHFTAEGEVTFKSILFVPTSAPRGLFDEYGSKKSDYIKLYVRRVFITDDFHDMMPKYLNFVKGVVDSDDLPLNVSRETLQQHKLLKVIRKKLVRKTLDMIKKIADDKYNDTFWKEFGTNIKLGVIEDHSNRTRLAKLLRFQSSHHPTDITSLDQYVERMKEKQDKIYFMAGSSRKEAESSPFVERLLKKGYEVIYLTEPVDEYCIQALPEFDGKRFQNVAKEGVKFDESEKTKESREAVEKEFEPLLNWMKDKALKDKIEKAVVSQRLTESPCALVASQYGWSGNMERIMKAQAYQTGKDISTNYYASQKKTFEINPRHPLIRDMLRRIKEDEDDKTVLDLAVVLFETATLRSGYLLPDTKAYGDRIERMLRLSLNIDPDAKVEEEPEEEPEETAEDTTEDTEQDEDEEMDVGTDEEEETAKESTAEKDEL

B1: K101.1: GRP94-specific IgG antibody, CDRs SEQ ID NO: 1-6, VH SEQ ID NO: 7, VL SEQ ID NO: 8 (antibody, V domains shown)
VH: EVQLLESGGGLVQPGGSLRLSCAASGFTFSNYSMSWVRQAPGKGLEWVSGIYYGSGNKYYADSVKGRFTISRDNSKNTLYLQMNSLRAEDTAVYYCAKNLASFDYWGQGTLVTVSS
VL: QSVLTQPPSASGTPGQRVTISCSGSSSNIGSNSVNWYQQLPGTAPKLLIYSNSHRPSGVPDRFSGSKSGTSASLAISGLRSEDEADYYCGTWDSSLSGYVFGGGTKLTVL
For B1, the “antibody internalization (FabFluor fluorescence intensity)” value (HCT116 cells; labeled antibody 2 μg/mL, imaged for 10 hours, Example 2, FIG. 10) was “exhibited stronger internalization than trastuzumab”, the “antibody internalization (FabFluor red fluorescence intensity)” value (HCT116 cells; labeled antibody 2 μg/ml, imaged for 12 hours, Example 1, FIG. 1) was “promoted internalization more efficiently than trastuzumab” and the “effect on CRC cell growth” value (HCT116) was “little to no effect”. The “effect on CRC cell growth” value (HT29) was “little to no effect” and the “effect on CRC cell growth” value (LoVo) was “little to no effect”.

B2: K101.1-Sec-DM1 (conjugate)
heavy: B1 VH
light: B1 VL
modifications: non-natural residues; left off: small tags and cut ends; large carriers
B2 was tested, and the “antigen binding by ELISA compared with parent antibody K101.1” value (rhGRP94) was “no significant difference in antigen binding”, the “antigen binding by ELISA compared with parent antibody K101.1” value (rmGRP94) was “no significant difference in antigen binding” and the “effect on CRC cell growth” value (HCT116) was “significantly and more strongly inhibited the growth”. For the same molecule, the “effect on CRC cell growth” value (HT29) was “significantly and more strongly inhibited the growth” and the “effect on CRC cell growth” value (LoVo) was “significantly and more strongly inhibited the growth”.
